Experimental data as given in paper doi:10.1101/836718, “A unique conformational escape reaction of HIV-1 against an allosteric integrase inhibitor” (bioRxiv, 2019).

What was measured:
[1] = target: the molecule itself; assay: SEC; HPLC, TSKgel-SWXLG3000 column; INHis at 50 µM; running buffer 20 mM HEPES pH 7.4, 750 mM NaCl, 3.75 mM CHAPS; 4°C as possible; self-association (tetramer, dimer, monomer)
[2] = target: T1, His-tagged lens epithelium-derived growth factor p75 (LEDGF/p75) (human (sequence derived from 293T cells), UniProt O75475 1-530); assay: pull-down; F-IN (2 µM) and LEDGF/p75His (2 µM) 30 min at RT in 50 mM HEPES pH 7.0, 300 mM NaCl, 2 mM MgCl2, 2 mM BME, 5% glycerol, 0.2% NP-40, 20 mM imidazole; His 60 Ni resin; wash with 1 M NaCl; Coomassie staining; settings: both partners purified
T1 construct: also called LEDGFHis; LEDGF/p75His; source: E. coli Rosetta (DE3) pLysS, purified (His-TALON column); not shown: His6, N-terminal, kept
T1 sequence (O75475 whole entry): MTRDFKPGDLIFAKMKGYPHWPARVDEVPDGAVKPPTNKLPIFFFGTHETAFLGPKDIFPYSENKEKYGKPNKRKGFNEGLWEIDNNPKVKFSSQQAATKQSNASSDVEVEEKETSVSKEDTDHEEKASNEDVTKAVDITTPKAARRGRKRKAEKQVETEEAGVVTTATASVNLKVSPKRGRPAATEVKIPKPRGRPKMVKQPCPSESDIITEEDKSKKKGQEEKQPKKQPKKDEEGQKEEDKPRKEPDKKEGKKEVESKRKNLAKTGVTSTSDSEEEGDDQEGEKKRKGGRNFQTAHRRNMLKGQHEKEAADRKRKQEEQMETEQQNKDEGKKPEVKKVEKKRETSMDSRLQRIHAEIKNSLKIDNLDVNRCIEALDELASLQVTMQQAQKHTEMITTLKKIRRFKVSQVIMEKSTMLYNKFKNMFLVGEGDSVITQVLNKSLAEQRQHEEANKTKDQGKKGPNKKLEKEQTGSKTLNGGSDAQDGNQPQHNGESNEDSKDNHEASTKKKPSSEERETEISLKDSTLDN

B1: recombinant His-tagged HIV-1 integrase, wild type (IN^WT) (enzyme)
chain: FLDGIDKAQEEHEKYHSNWRAMASDFNLPPVVAKEIVASCDKCQLKGEAMHGQVDCSPGIWQLDCTHLEGKVILVAVHVASGYIEAEVIPAETGQETAYFLLKLAGRWPVKTVHTDNGSNFTSTTVKAACWWAGIKQEFGIPYNPQSQGVIESMNKELKKIIGQVRDQAEHLKTAVQMAVFIHNFKRKGGIGGYSAGERIVDIIATDIQTKELQKQITKIQNFRVYYRDSRDPVWKGPAKLLWKGEGAVVIQDNSDIKVVPRRKAKIIRDYGKQMAGDDCVASRQDED
notes: pET30a IN-6xHis; also called INHis; IN-6xHis; source: E. coli Rosetta (DE3) pLysS, purified (His-TALON column); not shown: His6, C-terminal, kept
Q: B1 was tested. Which “stoichiometry N” value [1] did it give?
A: The value was 2.

B2: Flag-tagged HIV-1 integrase, wild type (F-IN^WT) (enzyme)
chain: FLDGIDKAQEEHEKYHSNWRAMASDFNLPPVVAKEIVASCDKCQLKGEAMHGQVDCSPGIWQLDCTHLEGKVILVAVHVASGYIEAEVIPAETGQETAYFLLKLAGRWPVKTVHTDNGSNFTSTTVKAACWWAGIKQEFGIPYNPQSQGVIESMNKELKKIIGQVRDQAEHLKTAVQMAVFIHNFKRKGGIGGYSAGERIVDIIATDIQTKELQKQITKIQNFRVYYRDSRDPVWKGPAKLLWKGEGAVVIQDNSDIKVVPRRKAKIIRDYGKQMAGDDCVASRQDED
notes: pET30a Flag-IN; also called Flag-IN; source: E. coli Rosetta (DE3) pLysS, purified (by previous reports, Kessl et al., 2012); not shown: FLAG, N-terminal, kept
Q: Does B2 bind [2]?
A: Result: binds
